The values below come from patent US20090196913A1, “Anti-Alpha-V Immunoliposome Composition, Methods, and Uses” (priority 2007, published 2009).

The target of this experiment is murine αVβ3/5 integrin on the murine melanoma cell line B16-F10 (murine) (UniProt P43406). Put plainly: cell-based or functional assay. Set-up: IC50 of doxorubicin, cell viability, murine melanoma B16-F10, integrin targeted liposome-entrapped dox 90:1: unit not given beside the values.
Sequence of murine αVβ3/5 integrin on the murine melanoma cell line B16-F10 (murine) (P43406 31-1044): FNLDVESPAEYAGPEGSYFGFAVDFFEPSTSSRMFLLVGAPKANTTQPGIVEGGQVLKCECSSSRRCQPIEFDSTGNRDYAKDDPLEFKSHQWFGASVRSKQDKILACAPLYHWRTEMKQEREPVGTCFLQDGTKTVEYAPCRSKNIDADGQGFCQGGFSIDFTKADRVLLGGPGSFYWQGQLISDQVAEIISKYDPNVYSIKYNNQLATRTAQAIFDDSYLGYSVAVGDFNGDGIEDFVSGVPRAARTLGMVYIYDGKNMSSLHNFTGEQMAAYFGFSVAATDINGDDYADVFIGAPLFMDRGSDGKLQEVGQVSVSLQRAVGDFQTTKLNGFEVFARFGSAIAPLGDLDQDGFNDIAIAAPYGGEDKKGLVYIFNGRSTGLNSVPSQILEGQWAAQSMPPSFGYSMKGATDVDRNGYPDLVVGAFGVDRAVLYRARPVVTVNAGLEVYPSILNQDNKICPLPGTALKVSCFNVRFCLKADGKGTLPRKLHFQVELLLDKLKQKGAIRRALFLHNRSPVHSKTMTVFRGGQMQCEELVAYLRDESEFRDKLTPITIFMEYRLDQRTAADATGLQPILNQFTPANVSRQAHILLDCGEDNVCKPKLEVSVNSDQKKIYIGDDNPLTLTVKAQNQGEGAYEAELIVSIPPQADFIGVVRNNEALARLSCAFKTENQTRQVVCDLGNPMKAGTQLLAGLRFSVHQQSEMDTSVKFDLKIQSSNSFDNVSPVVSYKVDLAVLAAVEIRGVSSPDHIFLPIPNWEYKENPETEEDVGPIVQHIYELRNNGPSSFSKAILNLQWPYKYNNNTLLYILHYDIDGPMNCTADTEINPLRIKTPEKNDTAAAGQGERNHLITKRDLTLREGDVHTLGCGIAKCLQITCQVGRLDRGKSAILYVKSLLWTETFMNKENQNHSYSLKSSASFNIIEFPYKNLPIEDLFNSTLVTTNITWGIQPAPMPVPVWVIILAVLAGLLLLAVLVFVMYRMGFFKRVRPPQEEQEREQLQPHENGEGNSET

Turning to “CNTO95 Fab′ (from pepsin cleavage, reduction and reoxidation) conjugated to PEG-DSPE on the surface of liposomes”, the IC50 of doxorubicin, cell viability, murine melanoma B16-F10, integrin targeted liposome-entrapped dox 90:1 is greater than 200 and the Increase (ratio of IC50 of liposome-entrapped doxorubicin to IC50 of 90:1 integrin-targeted liposomes), murine melanoma B16-F10 came to 1.
